From patent US20240084003A1 (SIMCERE ZAIMING PHARMACEUTICAL, published 2024)
Like-named read-outs stand apart in the source and are kept apart here.

Key:
[1] = molecular target: T1, monkey CD22 on HEK293T-monkey CD22 cells (monkey); assay: FACS, HEK293T-monkey CD22 cells
T1 construct: full-length entry expressed on stably transfected HEK293T cells
T1 chain: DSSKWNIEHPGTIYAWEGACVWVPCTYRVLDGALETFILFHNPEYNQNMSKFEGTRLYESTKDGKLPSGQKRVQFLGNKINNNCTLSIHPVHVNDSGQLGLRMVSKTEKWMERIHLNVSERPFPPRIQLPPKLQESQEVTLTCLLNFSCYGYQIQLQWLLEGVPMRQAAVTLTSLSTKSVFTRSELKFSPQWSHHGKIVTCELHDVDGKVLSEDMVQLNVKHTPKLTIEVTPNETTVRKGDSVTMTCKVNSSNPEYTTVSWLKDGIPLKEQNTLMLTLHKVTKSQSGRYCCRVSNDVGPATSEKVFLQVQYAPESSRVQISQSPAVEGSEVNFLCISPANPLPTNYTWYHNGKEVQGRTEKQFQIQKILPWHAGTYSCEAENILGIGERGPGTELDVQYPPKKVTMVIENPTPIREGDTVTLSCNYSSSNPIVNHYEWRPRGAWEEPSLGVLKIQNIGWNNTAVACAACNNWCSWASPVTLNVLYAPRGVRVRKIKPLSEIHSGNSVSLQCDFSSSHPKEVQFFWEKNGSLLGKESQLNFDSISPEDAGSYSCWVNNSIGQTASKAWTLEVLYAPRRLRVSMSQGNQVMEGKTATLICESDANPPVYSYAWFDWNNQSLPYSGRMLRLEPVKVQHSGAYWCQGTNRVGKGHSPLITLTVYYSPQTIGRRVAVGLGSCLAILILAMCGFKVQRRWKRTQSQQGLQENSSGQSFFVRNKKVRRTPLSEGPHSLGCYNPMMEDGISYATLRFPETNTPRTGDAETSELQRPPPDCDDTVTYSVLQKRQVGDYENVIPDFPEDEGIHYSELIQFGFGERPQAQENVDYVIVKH
Experimental: (§1) For suspension cell Raji, the medium supernatant was directly centrifuged and discarded, and the cell pellet was washed 2 times with PBS. After counting the cells in the previous step, the cell pellet was resuspended with [PBS+2% (w/w) BSA] blocking solution to 2×10⁶ cells/ml, and added to a 96-well FACS reaction plate at 50 μl/well, and then the chimeric antibody test sample was added at 50 μl/well, and incubated on ice for 2 hours. The mixture was centrifuged and washed 3 times with PBS buffer, Alexa Flour 488-labeled secondary antibody (purchased from Invitrogen, catalog number: A-11013) was added at 50 μl/well, and incubated on ice for 1 hour. The obtained mixture was centrifuged and washed 5 times with PBS, and FACS (FACS Canto™, purchased from BD Company) was used for detection and result analysis. Data analysis was performed by software (CellQuest) to obtain the mean fluorescence density (MFI)of the cells. And then software (GraphPad Prism8) was used for analysis, data fitting, and EC50 value calculation. […] The same method was used to detect the binding of the chimeric antibodies to endogenous CD22-negative cell MoLT4 cells (purchased from ATCC, CRL-1582) and CHO-K1 cells.
(§2) HEK293T-monkey CD22 cells were subjected to FACS detection and data analysis according to the method in Example 5.2.

[2] = molecular target: T1, monkey CD22 on HEK293T-monkey CD22 cells; assay: FACS, HEK293T-monkey CD22 cells
Experimental: as §1, §2

[3] = molecular target: T2, monkey CD22 protein (ACROBiosystems, catalog number SI2-R52Ha) (monkey, UniProt F6W485 20-688); assay: ELISA, coated monkey CD22 protein, antibody 10 nM
T2 construct: commercial protein; also called monkey CD22-ECD; monkey CD22-ECD-His
T2 sequence: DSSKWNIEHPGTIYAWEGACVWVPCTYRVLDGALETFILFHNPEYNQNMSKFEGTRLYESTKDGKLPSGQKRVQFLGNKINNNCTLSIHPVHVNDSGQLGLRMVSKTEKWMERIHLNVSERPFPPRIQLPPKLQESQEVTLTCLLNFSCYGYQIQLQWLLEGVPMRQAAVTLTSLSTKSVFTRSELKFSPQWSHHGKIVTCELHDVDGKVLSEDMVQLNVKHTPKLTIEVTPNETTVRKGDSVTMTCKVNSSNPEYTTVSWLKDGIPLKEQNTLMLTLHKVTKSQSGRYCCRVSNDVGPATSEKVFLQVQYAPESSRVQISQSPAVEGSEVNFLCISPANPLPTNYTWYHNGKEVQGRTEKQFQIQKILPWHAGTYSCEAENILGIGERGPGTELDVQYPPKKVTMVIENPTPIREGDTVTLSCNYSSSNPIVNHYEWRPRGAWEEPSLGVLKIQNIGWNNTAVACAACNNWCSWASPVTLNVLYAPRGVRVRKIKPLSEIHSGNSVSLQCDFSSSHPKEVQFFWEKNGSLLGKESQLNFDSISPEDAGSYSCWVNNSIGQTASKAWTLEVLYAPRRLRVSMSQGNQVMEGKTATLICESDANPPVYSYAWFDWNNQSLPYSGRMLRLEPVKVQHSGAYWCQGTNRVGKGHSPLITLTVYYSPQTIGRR
Experimental: (§3) In order to detect the binding activity of CD22 human-murine chimeric antibodies to CD22 protein, the purified human CD22-ECD-His protein obtained in Example 2 was diluted with PBS to a final concentration of 2 μg/mL, and then added to 96-well ELISA plate at 100 μl/well. The plate was sealed with plastic film and incubated overnight at 4° C., the plate was washed 2 times with PBS the next day, and then a blocking solution [PBS+2% (w/w) BSA] was added for blocking at room temperature for 2 hours. […] After incubation at 37° C. for 2 hours, the plate was washed 3 times with PBS. HRP (horseradish peroxidase)-labeled secondary antibody (purchased from Sigma, catalog number: A0170) was added, and incubated at 37° C. for 2 hours, and the plate was washed 5 times with PBS. TMB substrate was added at 50 μl/well, and incubated at room temperature for 30 minutes, then a stop solution (1.0 N HCl) was added at 50 μl/well.
(§4) In order to detect the species cross-binding activity of the chimeric antibodies, an ELISA plate was coated with commercial murine CD22 protein (ACROBiosystems, catalog number: SI2-M52Ha) and monkey CD22 protein (ACROBiosystems, catalog number: SI2-R52Ha), respectively, and the ELISA detection was performed according to the method in Example 5.1.

[4] = molecular target: T2, monkey CD22 protein (ACROBiosystems, …); assay: ELISA, coated monkey CD22 protein, antibody 0.001 nM
Experimental: as §3, §4

[5] = molecular target: T2, monkey CD22 protein (ACROBiosystems, …); assay: ELISA, coated monkey CD22 protein, antibody 0.0001 nM
Experimental: as §3, §4

[6] = molecular target: T2, monkey CD22 protein (ACROBiosystems, …); assay: ELISA, coated monkey CD22 protein, antibody 0.01 nM
Experimental: as §3, §4

[7] = molecular target: T2, monkey CD22 protein (ACROBiosystems, …); assay: ELISA, coated monkey CD22 protein, antibody 0.00001 nM
Experimental: as §3, §4

[8] = molecular target: T2, monkey CD22 protein (ACROBiosystems, …); assay: ELISA, coated monkey CD22 protein, antibody 100 nM
Experimental: as §3, §4

[9] = molecular target: T2, monkey CD22 protein (ACROBiosystems, …); assay: ELISA, coated monkey CD22 protein, antibody 0.1 nM
Experimental: as §3, §4

[10] = molecular target: T1, monkey CD22 on HEK293T-monkey CD22 cells; assay: FACS, HEK293T-monkey CD22 cells, EC50 column
Experimental: as §1, §2

B1: m971-hIgG1 (antibody, V domains shown)
VH: QVQLQQSGPGLVKPSQTLSLTCAISGDSVSSNSAAWNWIRQSPSRGLEWLGRTYYRSKWYNDYAVSVKSRITINPDTSKNQFSLQLNSVTPEDTAVYYCAREVTGDLEDAFDIWGQGTMVTVSS
VL: DIQMTQSPSSLSASVGDRVTITCRASQTIWSYLNWYQQRPGKAPNLLIYAASSLQSGVPSRFSGRGSGTDFTLTISSLQAEDFATYYCQQSYSIPQTFGQGTKLEIKR
notes: control anti-CD22 antibody; variable regions from US 8,591,889 on human IgG1 constant regions
[1]
  Maximum mean fluorescence intensity: 104 MFI
[2]
  Maximum mean fluorescence intensity: 49 MFI
[3]
  OD450: 0.09 OD450
[4]
  OD450: 0.06 OD450
[5]
  OD450: 0.07 OD450
[6]
  OD450: 0.07 OD450
[7]
  OD450: 0.07 OD450
[8]
  OD450: 0.12 OD450
[9]
  OD450: 0.07 OD450
[10]
  binding result: no binding
